Assay results as given in patent US11130783B2, “CD40 targeted peptides and uses thereof” (Regents of the University of Minnesota, priority 2018, dated 2021).
Entries after “also recorded” stand apart in the source; their conditions may differ.

Legend:
recombinant human CD40 = biological target: T1, recombinant human CD40 (Homo sapiens, UniProt P25942); test: ELISA for specificity of peptide binding to CD40; details: for binding affinity to CD40 by ELISA: FLAG-tagged rhsCD40 1 μg/ml, optical density at 450 nm; for affinity to bind to CD40 compared to the control Peptide 1: summary of the study
T1 construct: probed with FLAG-tagged rhsCD40 (1 μg/ml; Alexis); purchased Alexis
Description: Binding of the identified peptides to CD40 was analyzed by ELISA. Briefly, plates were coated with […] and then incubated with identified peptides and detected using Flag-tagged rhsCD40.
In order to confirm the specificity of the peptides to interfere with CD40:CD154 interaction, the specificity of peptides 1-7 as listed in table 1 to bind to human […] by ELISA was tested. Briefly, 96 well ELISA (Nunc Immunolon) plates were coated with the peptides in carbonate buffer. The wells are washed and probed with FLAG-tagged rhsCD40 (1 μg/ml; Alexis) and developed with HRP conjugated rabbit anti-FLAG antibody. The plates were washed and the enzymatic activity was determined using 3,3′,5,5′-tetramethyl-benzidine substrate for 15 minutes and the reaction was stopped by the addition of 2 M H2SO4, and optical density was measured at 450 nm, with the correction wavelength set at 620 nm.

[1] = biological target: T2, CD40 on mononuclear cells (Macaca mulatta, UniProt A0ACM8QRX8); test: Binding of fluorochrome tagged CD40 targeting peptides to PBMC by flow cytometry; set-up: species or system Rhesus macaques; details: 5 μM fluorochrome tagged peptide, 30 minutes at 4° C.
T2 construct: peripheral blood mononuclear cells (PBMC) purified from 2 Rhesus macaques (RM); endogenous in cells; host or cells: PBMC from Rhesus macaques
Description: Binding of the CD40 targeting peptides was analyzed by incubating 5 μM of various fluorochrome tagged CD40 interacting peptides with PBMC from rhesus monkeys for 30 minutes at 4° C. and analyzed by flow cytometry.
In order to screen the ability of the cyclic peptides to bind to CD40, peripheral blood mononuclear cells (PBMC) purified from 2 Rhesus macaques (RM) were incubated with 5 μM of fluorochrome tagged CD40 interacting peptides, Peptide 1-7 listed in Table 1 for 30 minutes at 4° C. The cells were washed 3× in PBS and analyzed by flow cytometry. Stained cells were acquired on a 3-laser BD Canto II instrument (BD Bioscience). A minimum of 200,000 events were acquired with FACSDIVA 6.1.3. Mean fluorescence intensity of the peptide binding to the cells were determined using FlowJo 10.1. software (Tree Star; Ashland, OR, USA). […] 1-7 bind to the PBMC but at various intensities, confirming the ability of the synthetic peptides to bind to CD40 on mononuclear cells.

B cells = test: Peptide blocking of B cell activation by recombinant hCD40L (MHC class II expression); type: cell-based, Rhesus macaques; details: peptides at 30 μM, pre-incubation then recombinant hCD40L
Description: The ability of the newly identified peptides to block B cell activation by CD40L was analyzed in a peptide blocking study. Briefly, B cells were pre-incubated with newly identified peptides for 30 minutes before stimulation with rhCD40L. Activation of the B cells was analyzed by measuring the expression levels of MHC class II molecules on the cell surface by flow cytometry.
The ability of CD40-binding peptides 1-7 as listed in Table 1 to block B cell activation was assessed by analyzing the expression of MHC class II molecules on the B cell when subsequently incubated in the presence of recombinant hCD40L. Briefly, B cells were purified from 3 RM PBMC by magnetic sorting. B cells were incubated with peptides at 30 μM for 15 minutes at 37° C., then activated for 30 minutes with recombinant hCD40L, and then analyzed for expression of MHC class II by staining the cells with specific antibody. Stained cells were acquired on a 3-laser BD Canto II instrument (BD Bioscience). A minimum of 200,000 events were acquired with FACSDIVA 6.1.3. FACS analysis was performed with FlowJo Version 10 software.

CD4, CD8 and CD20 cells = test: One-way CFSE mixed lymphocyte reaction (MLR), T and B cell proliferation; type: cell-based, Rhesus macaques; details: peptides at 30 μM, 6 days, CFSE-low cells, PBMC from 5 RM
Description: The ability of the CD40 targeting peptides to block CD40-CD40L signaling and inhibit T and B cell proliferation was assessed in a one-way CFSE-MLR. Each of the FIGS. 3A-3E show results of CFSE-MLR performed on PBMC obtained from a different Rhesus monkey. […] The levels of T cell and B cell proliferation was 35-46% in all the 5 animals and for sake clarity was capped at 25% in the figure for better visualization.
In order to determine the functional effect of co-stimulation blockade with peptides targeting CD40, one-way mixed lymphocyte reactions (MLR) was performed. CFSE-labeled PBMC from 5 different RM were stimulated with irradiated PBMC for 6 days. Stimulation with PHA was used as positive control. […] The cells were incubated in the presence of peptides at 30 μM. Following stimulation, PBMC were stained with antibodies specific for CD4, CD8 and CD20 and proliferating cells were quantitated by determining the frequency of CFSE-low CD4, CD8 and CD20 cells. Stained cells were acquired on a 3-laser BD Canto II instrument (BD Bioscience). A minimum of 200,000 events were acquired with FACSDIVA 6.1.3. FACS analysis was performed with FlowJo Version 10 software.

T2 sequence (A0ACM8QRX8 21-278): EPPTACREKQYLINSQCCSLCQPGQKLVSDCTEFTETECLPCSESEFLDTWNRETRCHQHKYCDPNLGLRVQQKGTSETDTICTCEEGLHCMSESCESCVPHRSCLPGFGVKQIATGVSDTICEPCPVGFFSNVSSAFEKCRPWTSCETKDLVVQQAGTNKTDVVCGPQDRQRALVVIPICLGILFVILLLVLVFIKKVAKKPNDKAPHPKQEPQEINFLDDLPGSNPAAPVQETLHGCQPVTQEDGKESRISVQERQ
T1 sequence (P25942 21-193 limits assumed): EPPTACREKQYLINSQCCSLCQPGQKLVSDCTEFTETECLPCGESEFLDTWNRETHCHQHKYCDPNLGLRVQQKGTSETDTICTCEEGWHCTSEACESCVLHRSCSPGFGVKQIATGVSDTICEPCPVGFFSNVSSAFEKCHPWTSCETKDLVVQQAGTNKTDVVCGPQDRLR

Row | Sequence | binding affinity to CD40 by ELISA (recombinant human CD40) | binding to PBMC / mononuclear cells (mean fluorescence intensity) [1] | affinity to bind to CD40 compared to the control Peptide 1 (recombinant human CD40) | ability to block B cell activation (MHC class II expression) (B cells) | suppression of T and B cell (CD4, CD8, CD20) proliferation (CD4, CD8 and CD20 cells) | suppression of T and B cell (CD4, CD8, CD20) proliferation (CD4, CD8 and CD20 cells; listed as Peptide #3) | suppression of T and B cell (CD4, CD8, CD20) proliferation (CD4, CD8 and CD20 cells; listed as Peptide#2)
1 | VVQWAEKGYYTMSQN [Peptide 7] | specific binding to human CD40 | least binding affinity |  |  |  |  | 
2 | VVQWAEKGFFTMSNN [Peptide 3] | specific binding to human CD40 | high binding affinity | higher affinity | complete abrogation of T and B cell proliferation as well as activation of B cells | higher efficacy compared to the other peptides; also recorded: complete abrogation of T and B cell proliferation | inhibited T and B cell proliferation significantly better than the CD40 targeting peptide identified earlier | 
3 | VLQWAEKGYYTMSNN [Peptide 1, reference compound] | high binding affinity | high binding affinity |  |  |  |  | 
4 | LVNWADKAFYTTSNN [Peptide 5] |  |  | higher affinity | complete abrogation of T and B cell proliferation as well as activation of B cells | complete abrogation of T and B cell proliferation |  | 
5 | VLQWAERGFYTTSNN [Peptide 2] | specific binding to human CD40 |  | higher affinity | complete abrogation of T and B cell proliferation as well as activation of B cells | higher efficacy compared to the other peptides; also recorded: complete abrogation of T and B cell proliferation |  | inhibited T and B cell proliferation significantly better than the CD40 targeting peptide identified earlier
6 | VLNWADKAYFTMSQN [Peptide 4] | lowest binding affinity |  |  |  |  |  | 
